Experimental data as given in the supplement of paper PMC9170038.

Tested on: MS2 coat protein
Experiment: apparent KD of MS2 coat protein; higher = weaker reporter binding
Settings: Eterna round: R107
Outline: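 Apparent KD was obtained for each design as the median of normalised binding-curve fits over its clusters. RNA switches transcribed on-chip from Illumina sequencing clusters were titrated with SNAP-549-labelled MS2 coat protein (twofold steps, 0.7 or 1.5 nM to 3 µM) in 100 mM Tris-HCl pH 7.5, 80 mM KCl, 4 mM MgCl2, without or with constant ligand.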

[1] = input ligand: theophylline 20 uM
[2] = input ligand: theophylline 2 mM
[3] = input ligand: tryptophan 2.4 mM

Sequence	apparent KD of MS2 coat protein (input ligand: arginine 13.2 mM) [nM]	apparent KD of MS2 coat protein (input ligand: none) [nM]	apparent KD of MS2 coat protein [1] [nM]	apparent KD of MS2 coat protein [2] [nM]	apparent KD of MS2 coat protein [3] [nM]
UCGUGAGUUUCGGAUACCAGUGUGGUCGAUACAUGAGGAUCACCCAUGUUAGAGGAGGUACACCCUUGGCAGCCGGCUGUGGCGG [hlhmullin]	31.4	23.5	35.4	18.1	25
UCGUGUAUAUCGGAUACCAGUGAAAACGAUACAUGAGGAUCACCCAUGUGAGUUGAUGUACACCCUUGGCAGCUGUAUAUAUCUA [fokullin]	16.1	–	22.7	–	18.6
UCGUGUAUAUCGGAUACCAGUGAAAUCGAUACAUGAGGAUCACCCAUGUGAGAGGAUGUACACCCUUGGCAGCUGUAUAUAUCUG [ll,lmullin]	18	–	25.1	–	20.4
UCUAACAUGAGGAUCACCCAUGUACCGUCCCGAGGACCGGUACGGCCGCCACUCGUCUUGCUAAAACUGAAGUGAUCACAAGCCU [theeternabot_sameState_MS2_Trp_A_2]	25.2	–	30.9	24.6	–
UGACAUUGCUCAGAUACCAGACGUGAGGAUCACCCACGUGCCAACAUGAGGAUCACCCAUGUCCCUUGGCAGCUGAGCAAUGUCU	12.8	–	24.1	–	15.5
UGAGAGGGCGGAAGGAGCGACAUGAGGAUCACCCAUGUCUCCCGUUAUGGGAGUUCUUUAGGUCAGGUAGGUCGCCGGCCUCUCA [#1 Exclusion - Arginine B Attempt #10 (Inspired by Omei)]	94.3	122	104	127	111
UGGCAAGAGGGAAGGAGCGUCAGCUGAGUCACAUGAGGAUCACCCAUGUAGCACAUAGUGUGACAGGUAGGUCGCCCUCUGCCGU [SS-ArgB10]	6.72	8.82	10.1	10.3	9.62
UGGGAAGGAGGAAGGAGCGCCAUAAGGGUGACAGUCUGGGUACAUGAGGAUCACCCAUGUAGGCAGGUAGGUCGCCUCGCUCUCA [XArg-B15]	26.2	9.53	12.8	14.3	12.5
UGGGCUGGGUGCGUAAAGGGCCUGGCGCAUCGAGGACCGGUACGGCCGCCACUCGGCUGUACAUGAGGAUCACCCAUGUCAGGGU [#1 Same State - Tryptophan A Attempt #18 (HarryS)]	45.9	192	552	506	364
UGGGUCGGAUGAGGAAAUUGUCCGACGUAUCGAGGACCGGUACGGCCGCCACUCGGUUGUACAUGAGGAUCACCCAUGUCAGGGU [#1 Same State - Tryptophan A Attempt #15 (HarryS)]	194	218	269	327	128
UGGGUUGGACCAGGAAAUGGUCUGACGCACCGAGGACCGGUACGGCCGCCACUCGGCCGUACAUGAGGAUCACCCAUGUCGGUGU [#1 Same State - Tryptophan A Attempt #13 (HarryS)]	107	376	486	1170	740
UGGUACAUGAGGAUCACCCAUGUUCCAGAUACCAGAUACCCGGUUAUCCCUUGGCAGCUGGUGUUACAUGAGGAUCACCCAUGUU [Exclusion Theophylline A GF16]	23.9	30.4	46	81.9	37.2
UGGUACAUGGCGGCCGCCACUUCACGUAAAAUAAAAGCUUGAGGAUCACCCAAGUAAUAAGUUGGGAGGACCGGGUCAUGUACCU	19.2	19.8	27	24.7	16.6
UGGUAUGUAGGAAGGAGCGCAUACUUCACAUGAGGAUCACCCAUGUCGAGACGUGAGUCAGUGCAGGUAGGUCGCCUAGUUAUGA [Same State - Arginine B (Freestyle 22)]	35.8	43	33.4	28.1	29
UGGUCCGUCGGAAGGAGCGACAUGAGGAUCACCCAUGUCUCCCGUUAUGGGAGUUCUUUAGGUCAGGUAGGUCGCCGGCGGGUCA [#1 Exclusion - Arginine B Attempt #12 (Inspired by Omei)]	91.6	111	209	220	144
UGGUUUGUGAUGGAUACCAGCAGAGAAAACGUUUAUCCUAACAUGAGGAUCACCCAUGUAUGCCCUUGGCAGCUGUUGUGGGCUA [8.S]	27.5	–	37.4	–	28.8
UGUAAUGGGAUCAACCCAUGAGAGUCUGAAGGAGCGAUCGUAAGAUCAGGUAGGUCGCGGGAGACAUGAGGAUCACCCAUGUAUA [#23 Exclusion - Arginine A]	27.2	41	46.3	44.3	39.7
UGUACCUAGUCGGCCGCCACUCCAAAAGGAGAGGAUCACCCUCCUAAACGAGUCAAAGACUCGAGGAGGACCGGGACUAGGUACU [Palindromic MS2 #AlternativeMS2 #Palindrome #StaticStem]	30	30.4	41.8	33.9	14
UGUACUAUGUGAAGGAGCGAGAAUCCUACAUGAGGAUCACCCAUGUAAGAGCGAAAGCUCACUCAGGUAGGUCGCACAUAGUACU [#17 Same State - Arginine B]	31.7	42.9	44.1	43.7	48.8
UGUAUGGACUGAAGGAGCGCCUCAAAAUAACAUGAGGAUCACCCAUGUAAGGCGAAAGCCGGGCAGGUAGGUCGCAGUCCAUACU [ArgBX 3 #StaticStem #MS2Late]	15.8	11.2	16.1	17	12.7

Sequence	apparent KD of MS2 coat protein (input ligand: arginine 13.2 mM) [nM]	apparent KD of MS2 coat protein (input ligand: none) [nM]	apparent KD of MS2 coat protein [1] [nM]	apparent KD of MS2 coat protein [2] [nM]	apparent KD of MS2 coat protein [3] [nM]
UGUAUGGACUGAAGGAGCGCCUCAAAAUAACAUGAGGAUCACCCAUGUGGCGAAAGCCAAGGGCAGGUAGGUCGCAGUCCAUACU [ArgBX 4 #StaticStem #MS2Late]	27.3	26.4	34.2	32.9	32
UGUAUGGACUGAAGGAGCGGGUAAUAAAUCUGAGGAUCACCCAGGUAAUAGGCGAAAGCCGCCCAGGUAGGUCGCAGUCCAUACU	13.3	14.7	27.5	18.8	23.1
UGUAUGGACUGAAGGAGCGGGUUGAUAACAUGAGGAUCACCCAUGUAAAAGGCGAAAGCCGCCCAGGUAGGUCGCAGUCCAUACU	4.19	10.1	19.5	13.1	10.9
UGUAUGUGAUCUGAUACCAGAGAUGAUAACCUGAGGAUCACCCUGGUAAGGCGAAAGCCACUCCCUUGGCAGCAGAUCGCAUACU	48.3	34.4	40.7	26.3	39
UGUAUGUGAUCUGAUACCAGCUAAUAAGCUUGAGGAUCACCCAAGUGGAGCGGAAACGCAGGCCCUUGGCAGCAGAUCGCAUACU [Denovo 9 #StaticStem #AlternativeMS2]	54.6	76.4	34.4	11.7	70.7
UGUAUGUGAUCUGAUACCAGUCCAACUGGUAAAGCACGAGGAUCACCCGUGUAAAAUUGGGACCCUUGGCAGCAGAUCGCAUACU	96.8	228	352	57.8	115
UGUAUGUGAUUUGAUACCAGACCAGCUGGUGGUACAUGAGGAUCACCCAUGUAGGUUUGGGUCCCUUGGCAGCAAAUCGCAUACU [SSTheo B #24]	54.6	–	64.5	–	44
UGUCAUGGAAACAUGACUGGUUCUACCGGUCGAGGACCGGUACGGCCGCCACUCGGUUGGUGGCACAUGAGGAUCACCCAUGUUA [SS Tryp A #13]	28.5	30.3	51.8	44.7	29.7
UGUGUAAUUGUCUGGUAGAUUUAUUUUUUUCGAGGACCGGUACGGCCGCCACUCGUUAUUUACAUGAGGAUCACCCAUGUUAGCU [JR_ExcTryptoA_Sub007]	12.4	–	22.3	15.5	–
UUACAUGAGGAUCACCCAUGUUUACUAUGUCGAGGACCGGUACGGCCGCCACUCGUAUUUGAUGAUUUAGGUGCCACAAGUUAUU [JR_Nu_ExcTryptoA_Sub024]	16.1	–	26.6	22.6	–
UUAGAUAUGACAGAUACCAGCGUGUUGUAGAACAUGAGGAUCACCCAUGUAGUGAUCAAGCGCCCUUGGCAGCUGGUAUGUUUGG [7.X]	61.5	–	277	–	179
UUAUGCAGGUCGGCCGCCACUACACACAUGAGGAUCACCCAUGUAGUUACUGGGUGAAGUGGCAGUAGGACCGGGACCUGCACAC [Brourdmod14]	148	470	403	823	891
UUAUGCAGGUCGGCCGCCACUACACACAUGAGGAUCACCCAUGUAGUUACUGGGUGAAGUGGCAGUAGGACCGGGACCUGCACAU [Brourdmod13]	52	479	739	850	465
UUGGUAGGACAGCUCAUAUAAGCAUGUGAUACCAGCUAGAAAACUAGCCCUUGGCAGCACUUUACAUGAGGAUCACCCAUGUCCC [EThA NP+V+V2 #2 +-Same Structure]	68.8	–	258	–	145
UUGUGGCGCUCGGCCGCCACUCCGACAUGAGGAUCACCCAUGUUCUACAUGAGGAUCACCCAUGUGAGGACCGGGAGACACUUCC [Exclusion Tryptophan B GF13]	53	–	109	116	–
UUUAACGGGCACGAUACCAGCGACAUGAGGAUCACCCAUGUAAACGCGGUGACGGUCUGUUGCCCUUGGCAGCGUGCAAAAUAAU [Zaquarar]	43	67.6	157	94.3	48.5
UUUAUUAUUGACUCGUUAUUGUUUUUGGAUCGAGGACCGGUACGGCCGCCACUCGUGAUAUACAUGAGGAUCACCCAUGUUAGCA [JR_Nu_SSTryptoA_Sub020]	19.3	–	22	17.2	–
UUUGGCGGCGAUCUGGGUUUACCAGAUCGGCGAGGACCGGUACGGCCGCCACUCGUGUUUCUUUGACAUGAGGAUCACCCAUGUA [whbob_SS_trypto A_f3]	34.9	–	74.6	102	–
UUUUAAUGUGCGGAUACCAGCCGUACAUGAGGAUCACCCAUGUCGCUGUUGAGCAUCGUCGGCCCUUGGCAGCUGUGUGUAGUUG [#27 Same State - Theophylline B]	26.2	51.9	62.7	66	42.3
